Columns and labels:
[1] = target: T1, CpcA-PEB (Synechocystis sp., UniProt Q54715); test: Excitation energy transfer in 2D surface arrays by FLIM / time-resolved single photon counting; conditions: 485 nm laser
T1 construct: made in house; host or cells: E. coli
Description: Native special pairs play a critical role as energy transfer acceptors for antenna proteins. To test whether our designed SP proteins participate in energy transfer with natural light-harvesting proteins, we analyzed excitation energy transfer in 2D surface arrays using Fluorescence Lifetime Imaging Microscopy (FLIM) in combination with nanoimprint lithography (Huang, Vasilev, and Hunter 2020) (FIG. 5). We selected the cyanobacterial antenna protein CpcA with attached phycoerythrobilin (PEB) as the energy transfer donor. CpcA-PEB was purified from E. coli, and gives a strong fluorescence emission maximum at 568 nm and emission extending past 630 nm (Barnett et al. 2017), overlapping with the excitation spectrum of Zn pheophorbide a (ZnPPa) when bound to SP2. […]
To quantify the strength of the interaction between CpcA-PEB and SP2-ZnPPa, we used time-resolved single photon counting. The surface was illuminated with a 485 nm picosecond laser filtered at 620 nm (donor emission), and photons were counted for individual pixels (surface resolution approximately 300 nm) over time, allowing both total fluorescence intensity and lifetime to be analyzed (FIG. 5d). In regions with only CpcA-PEB, fluorescence intensity was above 4000 arbitrary units (a.u.) and the lifetime was over 2 ns (τav=2058 ps). […]

[2] = target: T2, O32-15B; test: negative-stain EM of two-component octahedral nanocage
T2 construct: Homotrimeric component of the O32-15 octahedral nanocage (8 trimers per cage); also called C3 trimer; trimeric component
T2 chain: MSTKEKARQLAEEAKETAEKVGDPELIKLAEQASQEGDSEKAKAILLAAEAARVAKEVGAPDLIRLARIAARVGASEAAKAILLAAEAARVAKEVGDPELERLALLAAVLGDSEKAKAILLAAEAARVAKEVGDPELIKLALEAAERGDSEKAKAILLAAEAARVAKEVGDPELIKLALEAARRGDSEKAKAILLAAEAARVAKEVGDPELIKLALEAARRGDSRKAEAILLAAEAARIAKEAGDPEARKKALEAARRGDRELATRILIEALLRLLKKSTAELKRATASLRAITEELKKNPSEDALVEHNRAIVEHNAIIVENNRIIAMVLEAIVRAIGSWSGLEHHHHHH
Experimental: Transmission negative-stain electron microscopy (nsEM) and image processing: SEC purified cage fractions were diluted to about 0.5 μM (monomeric component concentration) for negative-stain EM characterization. Briefly, on a glow-discharged formvar/carbon supported 400-mesh copper grid (Ted Pella, Inc.), 6 μL of protein sample were drop-casted for 2 mins. The grid was blotted and stained with 3 μL of 2% uranyl formate, blotted again, and stained with 3 μL of uranyl formate for 20 s before final blotting. Micrographs of stained samples were taken on a 120 kV Talos™ L120C transmission electron microscope. All nsEM datasets were collected using the EPU software and processed by CryoSparc™ (Punjani et al. 2017) with contrast transfer function (CTF) correction. All the particle picks were 2D classified for 20 iterations into 50 classes. Particles from selected classes were used for building the ab-initio initial model. The initial model was homogeneously refined using C₁ and the corresponding O symmetry.

T1 sequence (Q54715 whole entry): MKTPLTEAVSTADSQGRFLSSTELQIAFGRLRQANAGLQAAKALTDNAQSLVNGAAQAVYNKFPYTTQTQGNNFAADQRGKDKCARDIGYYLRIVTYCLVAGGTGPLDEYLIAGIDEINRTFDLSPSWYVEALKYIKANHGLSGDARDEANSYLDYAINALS

Row | Molecule | energy transfer efficiency of CpcA-PEB to SP2-ZnPPa ([1]; 2D arrays on poly-L-lysine glass, 620 nm filter) | donor fluorescence lifetime τav ([1]; regions with both CpcA-PEB and SP2-ZnPPa, 620 nm donor emission (CpcA-PEB only: 2058 ps)) | binding result [2]
1 | SP2-ZnPPa: SP2 protein with bound Zn pheophorbide a (ZnPPa), energy transfer acceptor (protein) SGSGSSDEEFKFLATEAKMLITAAERLAGTDPELQEMVALIKKELEQAERTFRNGDKSEAQRQLEFVLTAARAVMNVAAAANAAGTDPELIEMVLRILKQLKEAIRTFQNGDQEEAETQLRFVLRAAIAVAVVAAALVLAGTDPELQEMVKQILEELKQAIETFARGDKEKALTQLLFVAWAAHAVAMIAAAANLAGTDPRLQQQVKEILEKLKEAIETFQKGDEEQAFRQLAEVLAEAALVALRAALTN | 59% | 839 ps | 
2 | O32-15A (designed binder, Homodimeric component of the O32-15 octahedral nanocage (12 dimers per cage); also called C2 dimer (based on SP2); chlorophyll dimer component) MDEEFKFLATEAKMLITAAERLAGTDPRLQEMVALIKKELEQAERTFRNGDKSEAQRQLEFVLTAARAVMNVAAAANAAGTDPLLKAMVDAILWRLKEAIRTFQNGDEEAETQLRFVLRAAIAVAVVAAALVLAGTDPELQEMVEQIKDLLISAFMAGEKALTQLLFVAWAAHAVAMIAAAANLAGPRLQQQVKEILEKLKEAIETFQKGDEEQAFRQLAEVLAEAALVALRAALTNLEHHHHHH |  |  | binds

Reference: patent US20250326867A1, “De novo designed chlorophyll special pair proteins” (University of Washington, priority 2024, published 2025)
